The values below come from paper doi:10.1101/2023.03.09.531992.

The target of the assay is full-length, extra-membrane clientized (Thr1273Glu) S tail, biotinylated (BLI) (SARS-CoV-2). Description: BLI. A general note: BLI is a label-free optical method that tracks binding on a fibre tip over time.

B1: S. pombe αWD40 domain (N-terminal WD40 domain of α-COPI), wild type (domain or fragment)
chain: MEMLTKFESRSSRAKGVAFHPTQPWILTSLHNGRIQLWDYRMGTLLDRFDGHDGPVRGIAFHPTQPLFVSGGDDYKVNVWNYKSRKLLFSLCGHMDYVRVCTFHHEYPWILSCSDDQTIRIWNWQSRNCIAILTGHSHYVMCAAFHPSEDLIVSASLDQTVRVWDISGLRMKNAAPVSMSLEDQLAQAHNSISNDLFGSTDAIVKFVLEGHDRGVNWCAFHPTLPLILSAGDDRLVKLWRMTASKAWEVDTCRGHFNNVSCCLFHPHQELILSASEDKTIRVWDLNRRTAVQTFRRDNDRFWFITVHPKLNLFAAAHDSGVMVFKLE
As for B1, the fold slower binding rate than the wild-type S tail worked out at 2.4 fold and the fold tighter binding than the wild-type S tail amounted to 11 fold.
